# B1: Translocon at the outer membrane of chloroplasts 64 (Pisum sativum (Garden pea)), Q9MUK5 (parent)
# chain: MKSMASPSSQIWVILGLGLAGIYVLTRKLTQAVKEDFGAFLLKLKLLPPPPPAPPKAPHPLSSLNFAISDIFDIEGHVSTFGHPEWARTHEPASSTASAVSALVESGATCIGTTVVDELAYGISGENKHFGTPTNPAVPNRVPGGSSSGAAVAVAANFVDFSLGVDTSGGVRVPAGFCGILGFRPSHGAVSHVGIIPVSTSLDTVGWFAKDPDVLRRVGHILLQAPFVMQRNPRQIIIADDCFQHLNVPLDRTSQVVIKATEKLFGKQVLKHINFEDYISSKVSSLKACSIQKSNGVLKSSSLKLLANVMQSLQRHEFEHTHSEWMSIVKPDLHPAVSAQLHEKFEVSELEIENSKSVRSELRVAVNSLLKDEGVLVIPTVADPPPKLGGKEFLSHDYQSRALSLLSIASISGCCQVTVPLGFFDKNPVSVSLIARHGGDRFLLDTLKTMYTVLQEQADIAAPSKSSKSVVSKEQSAEISKEKGNQAYKDKQWQKAIGFYTEAIKLCGNNATYYSNRAQAYLELGSYLQAEEDCTTAISFDKKNVKAYFRRGTAREMLGYYKEAIDDFKYALVLEPTNKRAASSAERLRKLFQ
# Variants of: B1
# Conditions: with hs704_arath HSP70-4, Q9LHA8
row,Variant,effect of a mutation on the interaction
1,MKSMASPSSQIWVILGLGLAGIYVLTRKLTQAVKEDFGAFLLKLKLLPPPPPAPPKAPHPLSSLNFAISDIFDIEGHVSTFGHPEWARTHEPASSTASAVSALVESGATCIGTTVVDELAYGISGENKHFGTPTNPAVPNRVPGGSSSGAAVAVAANFVDFSLGVDTSGGVRVPAGFCGILGFRPSHGAVSHVGIIPVSTSLDTVGWFAKDPDVLRRVGHILLQAPFVMQRNPRQIIIADDCFQHLNVPLDRTSQVVIKATEKLFGKQVLKHINFEDYISSKVSSLKACSIQKSNGVLKSSSLKLLANVMQSLQRHEFEHTHSEWMSIVKPDLHPAVSAQLHEKFEVSELEIENSKSVRSELRVAVNSLLKDEGVLVIPTVADPPPKLGGKEFLSHDYQSRALSLLSIASISGCCQVTVPLGFFDKNPVSVSLIARHGGDRFLLDTLKTMYTVLQEQADIAAPSKSSKSVVSKEQSAEISKEKGNQAYKDKQWQKAIGFYTEAIKLCGNNATYYSNRAQAYLELGSYLQAEEDCTTAISFDKKNVKAYFARGTAREMLGYYKEAIDDFKYALVLEPTNKRAASSAERLRKLFQ [R550A],decreasing interaction
